Laboratory results taken from the supplement of paper PMC9732359.
± gives the uncertainty stated by the source.

Assay: protein stability index of a GFP-peptide fusion (yeast GPS) (PSI 1-4); higher = more stable; sorted into four equal gates, so the index is relative within each strain
Outline: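 For each peptide, the protein stability index sums the read frequency in every gate after multiplying it by the gate number. Read frequencies came from plasmids that were PCR-amplified from each gate and Illumina-sequenced, with reads assigned to strains by barcodes. The gates were four equal bins of GFP/Cherry fluorescence ratio applied to mid-log yeast in leucine-free medium carrying a pooled library of tiled 17-residue yeast protein peptides fused downstream of GFP on a Cherry-expressing plasmid.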

Row | Sequence | protein stability index (doa10∆) | protein stability index (pdr5∆) | protein stability index (san1∆) | protein stability index (ubr1∆)
1 | AFDVDRAKSCGVDAMSV [RPL1A] | 2.79 ± 0.092 | 2.73 ± 0.094 | 2.76 ± 0.091 | 2.71 ± 0.055
2 | AFETHYRRLFAKRLIHG [CDC53] | 2.46 ± 0.076 | 2.54 ± 0.071 | 2.8 ± 0.09 | 2.89 ± 0.071
3 | AFFREKGLVSQQLDSFN [RPB2] | 3.11 ± 0.13 | 3.17 ± 0.19 | 2.96 ± 0.1 | 2.97 ± 0.087
4 | AFGSSATDISGELRDYI [YJR042W/NUP85] | 3.26 ± 0.14 | 3.54 ± 0.13 | 2.81 ± 0.11 | 3.28 ± 0.083
5 | AFRTLRLARSEKKFRGI [RPL13A] | 3.4 ± 0.24 | 3.49 ± 0.15 | – | 3.3 ± 0.084
6 | AFSFGAKPDEKKNDEVS [YJL041W/NSP1] | 3.22 ± 0.16 | 3.19 ± 0.15 | – | 3.26 ± 0.17
7 | AFVKQKNDSLEKTINDL [YIL149C/MLP2] | 3.1 ± 0.11 | 3.19 ± 0.11 | 3.02 ± 0.14 | 3.11 ± 0.12
8 | AFYQKGNKLVELMRIIS [SMC1] | 1.59 ± 0.27 | 1.15 ± 0.19 | – | 1.38 ± 0.25
9 | AGEFGLKNKKEIYRISF [RPS9A] | 2.58 ± 0.065 | 2.95 ± 0.089 | 3.08 ± 0.14 | 2.77 ± 0.066
10 | AGFDPRDDEPKLYQTEP [PRE6] | 3.24 ± 0.084 | 3.03 ± 0.12 | 3.1 ± 0.05 | 3.24 ± 0.07
11 | AGIVPVSANTPKSLNSN [SWI1] | 3.07 ± 0.059 | 3.04 ± 0.066 | 3.04 ± 0.048 | 3.22 ± 0.043
12 | AGKWFDPVLDWRKSDRE [SIR4] | 3.17 ± 0.088 | 3.44 ± 0.087 | 2.71 ± 0.14 | 3.18 ± 0.066
13 | AGNKVGQSEASLLNLLN [RPP0] | 3.03 ± 0.12 | 2.25 ± 0.095 | 2.67 ± 0.1 | 2.95 ± 0.12
14 | AGVEDVYTQSNGKTRTL [RPS2] | 2.76 ± 0.11 | 3.21 ± 0.084 | 3.28 ± 0.066 | 3.48 ± 0.057
15 | AHEIIKREEKAMTIYWD [CDC53] | 2.03 ± 0.087 | 2.18 ± 0.064 | – | 2.2 ± 0.05
16 | AHNKPSLFSKIKTFFTQ [YAR002W/NUP60] | 2.37 ± 0.079 | 2.85 ± 0.076 | 2.66 ± 0.064 | 2.73 ± 0.065
17 | AHVNKVTEETTKQIQSV [SIR4] | 2.81 ± 0.095 | 2.89 ± 0.078 | 2.98 ± 0.041 | 2.53 ± 0.061
18 | AIIRLHPSIYTQVFNIL [POP1] | 2.02 ± 0.051 | 1.22 ± 0.047 | 1.2 ± 0.09 | 1.22 ± 0.036
19 | AIMSKSSLEELLLKDQQ [ECM29] | 2.83 ± 0.09 | 2.93 ± 0.073 | 2.83 ± 0.1 | 2.98 ± 0.05
20 | AINPGRVAASFSQEALQ [FAS1] | 2.05 ± 0.15 | 2.53 ± 0.15 | 2.63 ± 0.13 | 1.98 ± 0.098
21 | AINVFPEGYKAKSISTS [RPO31] | 2.03 ± 0.05 | 1.8 ± 0.057 | 2.27 ± 0.07 | 2.31 ± 0.059
22 | AIPNPEDVVAISSRTYG [RPS0B] | 3.33 ± 0.11 | 3.07 ± 0.055 | 2.99 ± 0.079 | 3.09 ± 0.047
23 | AKAKRRHTTGTGRMRYL [RPL37A] | 3.14 ± 0.14 | 3.22 ± 0.083 | 2.99 ± 0.16 | 3.62 ± 0.16
24 | AKDKEIYNKMIGVLNNS [RPN13] | 2.6 ± 0.084 | 2.94 ± 0.1 | 2.72 ± 0.053 | 2.93 ± 0.065
25 | AKINEVYNNSKDEYLAQ [NSL1] | 2.83 ± 0.047 | 3.06 ± 0.043 | 2.77 ± 0.048 | 2.75 ± 0.037
26 | AKKHKLNAITLDGDRAD [SMC3] | 2.37 ± 0.21 | 2.66 ± 0.28 | – | –
